The results in this text go back to article PMC7367873, “Dissecting the sequence determinants for dephosphorylation by the catalytic subunits of phosphatases PP1 and PP2A” (Nature Communications, 2020).

Experiment [1] concerns GFP-14-3-3β. The experiment is described as follows: GFP-14-3-3β co-IP with LC-MS/MS, untreated GFP-14-3-3β versus GFP control (14-3-3 interactome). The class given is binding, human. As to conditions: 3 replicates each.
Experiment [2] deals with GFP-14-3-3β and its binding proteins. Kind of experiment: GFP-14-3-3β co-IP with LC-MS/MS label-free quantification, untreated versus PP1c-treated. The following applies: pairwise comparison PP1 vs untreated, 3 replicates each. On the set-up: species or system human.
The mark [3] stands for this setting: pairwise comparison untreated GFP-14-3-3β vs GFP, student's t-test, LC-MS/MS label-free quantification.
Setting [4] is: student's t-test, LC-MS/MS label-free quantification.
The mark [5] stands for this setting: log2 difference, pairwise comparison untreated vs GFP, label-free quantification.
[6] abbreviates: log2 difference, label-free quantification.

B1: FAM122B (protein, UniProt Q7Z309 2-247, looked up)
PABIR family member 2: AQEKMELDLEPDTSYGGTLRRSSSAPLIHGLSDLSQVFQPYTLRTRRNSTTIMSRHSLEEGLDMVNRETAHEREMQTAMQISQSWDESLSLSDSDFDKPEKLYSPKRIDFTPVSPAPSPTRGFGKMFVSSSGLPPSPVPSPRRFSRRSQSPVKCIRPSVLGPLKRKGEMETESQPKRLFQGTTNMLSPDAAQLSDLSSCSDILDGSSSSSGLSSDPLAKGSATAESPVACSNSCSSFILMDDLSPK
As to B1, in experiment [1] (setting [3]), the “Difference (log2), untreated vs GFP” value was 4.879 log2. The “Difference (log2), PP1 vs untreated” value in experiment [2] (setting [4]) is listed as -5.572 log2.

B2: PPFIBP1 (protein, UniProt Q86W92 1-1011, looked up)
Liprin-beta-1: MMSDASDMLAAALEQMDGIIAGSKALEYSNGIFDCQSPTSPFMGSLRALHLVEDLRGLLEMMETDEKEGLRCQIPDSTAETLVEWLQSQMTNGHLPGNGDVYQERLARLENDKESLVLQVSVLTDQVEAQGEKIRDLEFCLEEHREKVNATEEMLQQELLSRTSLETQKLDLMAEISNLKLKLTAVEKDRLDYEDKFRDTEGLIQEINDLRLKVSEMDSERLQYEKKLKSTKSLMAKLSSMKIKVGQMQYEKQRMEQKWESLKDELASLKEQLEEKESEVKRLQEKLVCKMKGEGVEIVDRDIEVQKMKKAVESLMAANEEKDRKIEDLRQCLNRYKKMQDTVVLAQGKDGEYEELLNSSSISSLLDAQGFSDLEKSPSPTPVMGSPSCDPFNTSVPEEFHTTILQVSIPSLLPATVSMETSEKSKLTPKPETSFEENDGNIILGATVDTQLCDKLLTSSLQKSSSLGNLKKETSDGEKETIQKTSEDRAPAESRPFGTLPPRPPGQDTSMDDNPFGTRKVRSSFGRGFFKIKSNKRTASAPNLAETEKETAEHLDLAGASSRPKDSQRNSPFQIPPPSPDSKKKSRGIMKLFGKLRRSQSTTFNPDDMSEPEFKRGGTRATAGPRLGWSRDLGQSNSDLDMPFAKWTKEQVCNWLMEQGLGSYLNSGKHWIASGQTLLQASQQDLEKELGIKHSLHRKKLQLALQALGSEEETNHGKLDFNWVTRWLDDIGLPQYKTQFDEGRVDGRMLHYMTVDDLLSLKVVSVLHHLSIKRAIQVLRINNFEPNCLRRRPSDENTIAPSEVQKWTNHRVMEWLRSVDLAEYAPNLRGSGVHGGLMVLEPRFNVETMAQLLNIPPNKTLLRRHLATHFNLLIGAEAQHQKRDAMELPDYVLLTATAKVKPKKLAFSNFGNLRKKKQEDGEEYVCPMELGQASGSASKKGFKPGLDMRLYEEDDLDRLEQMEDSEGTVRQIGAFSEGINNLTHMLKEDDMFKDFAARSPSASITDEDSNV
Take B2: the “Difference (log2), untreated vs GFP” value in experiment [1] (setting [3]) is 6.964 log2. Also, the “Difference (log2), PP1 vs untreated” value in experiment [2] (setting [4]) is recorded as -5.566 log2.

B3: SRPK1 (protein, UniProt Q96SB4 1-655, looked up)
SRSF protein kinase 1: MERKVLALQARKKRTKAKKDKAQRKSETQHRGSAPHSESDLPEQEEEILGSDDDEQEDPNDYCKGGYHLVKIGDLFNGRYHVIRKLGWGHFSTVWLSWDIQGKKFVAMKVVKSAEHYTETALDEIRLLKSVRNSDPNDPNREMVVQLLDDFKISGVNGTHICMVFEVLGHHLLKWIIKSNYQGLPLPCVKKIIQQVLQGLDYLHTKCRIIHTDIKPENILLSVNEQYIRRLAAEATEWQRSGAPPPSGSAVSTAPQPKPADKMSKNKKKKLKKKQKRQAELLEKRMQEIEEMEKESGPGQKRPNKQEESESPVERPLKENPPNKMTQEKLEESSTIGQDQTLMERDTEGGAAEINCNGVIEVINYTQNSNNETLRHKEDLHNANDCDVQNLNQESSFLSSQNGDSSTSQETDSCTPITSEVSDTMVCQSSSTVGQSFSEQHISQLQESIRAEIPCEDEQEQEHNGPLDNKGKSTAGNFLVNPLEPKNAEKLKVKIADLGNACWVHKHFTEDIQTRQYRSLEVLIGSGYNTPADIWSTACMAFELATGDYLFEPHSGEEYTRDEDHIALIIELLGKVPRKLIVAGKYSKEFFTKKGDLKHITKLKPWGLFEVLVEKYEWSQEEAAGFTDFLLPMLELIPEKRATAAECLRHPWLNS
For the molecule B3, the “Difference (log2), untreated vs GFP” value in experiment [1] (setting [5]) is listed as 0.8168. Moreover, the “Difference (log2), PP1 vs untreated” value in experiment [2] (setting [6]) was 1.464.

B4: SRSF7 (protein, UniProt Q16629 1-238, looked up)
Serine/arginine-rich splicing …: MSRYGRYGGETKVYVGNLGTGAGKGELERAFSYYGPLRTVWIARNPPGFAFVEFEDPRDAEDAVRGLDGKVICGSRVRVELSTGMPRRSRFDRPPARRPFDPNDRCYECGEKGHYAYDCHRYSRRRRSRSRSRSHSRSRGRRYSRSRSRSRGRRSRSASPRRSRSISLRRSRSASLRRSRSGSIKGSRYFQSPSRSRSRSRSISRPRSSRSKSRSPSPKRSRSPSGSPRRSASPERMD
As for B4, the “Difference (log2), untreated vs GFP” value in experiment [1] (setting [3]) is recorded as 7.205 log2. The “Difference (log2), PP1 vs untreated” value in experiment [2] (setting [4]) was -6.84 log2.

B5: PFKFB2 (protein, UniProt O60825 2-505, looked up)
6-phosphofructo-2-kinase/fruct …: SGASSSEQNNNSYETKTPNLRMSEKKCSWASYMTNSPTLIVMIGLPARGKTYVSKKLTRYLNWIGVPTKVFNLGVYRREAVKSYKSYDFFRHDNEEAMKIRKQCALVALEDVKAYLTEENGQIAVFDATNTTRERRDMILNFAEQNSFKVFFVESVCDDPDVIAANILEVKVSSPDYPERNRENVMEDFLKRIECYKVTYRPLDPDNYDKDLSFIKVINVGQRFLVNRVQDYIQSKIVYYLMNIHVQPRTIYLCRHGESEFNLLGKIGGDSGLSVRGKQFAQALRKFLEEQEITDLKVWTSQLKRTIQTAESLGVPYEQWKILNEIDAGVCEEMTYAEIEKRYPEEFALRDQEKYLYRYPGGESYQDLVQRLEPVIMELERQGNVLVISHQAVMRCLLAYFLDKGADELPYLRCPLHTIFKLTPVAYGCKVETIKLNVEAVNTHRDKPTNNFPKNQTPVRMRRNSFTPLSSSNTIRRPRNYSVGSRPLKPLSPLRAQDMQEGAD
Regarding B5, the “Difference (log2), untreated vs GFP” value in experiment [1] (setting [3]) amounted to 3.999 log2. Besides, the “Difference (log2), PP1 vs untreated” value in experiment [2] (setting [4]) was -5.844 log2.

B6: PI4KB (protein, UniProt Q9UBF8 2-816, looked up)
Phosphatidylinositol 4-kinase …: GDTVVEPAPLKPTSEPTSGPPGNNGGSLLSVITEGVGELSVIDPEVAQKACQEVLEKVKLLHGGVAVSSRGTPLELVNGDGVDSEIRCLDDPPAQIREEEDEMGAAVASGTAKGARRRRQNNSAKQSWLLRLFESKLFDISMAISYLYNSKEPGVQAYIGNRLFCFRNEDVDFYLPQLLNMYIHMDEDVGDAIKPYIVHRCRQSINFSLQCALLLGAYSSDMHISTQRHSRGTKLRKLILSDELKPAHRKRELPSLSPAPDTGLSPSKRTHQRSKSDATASISLSSNLKRTASNPKVENEDEELSSSTESIDNSFSSPVRLAPEREFIKSLMAIGKRLATLPTKEQKTQRLISELSLLNHKLPARVWLPTAGFDHHVVRVPHTQAVVLNSKDKAPYLIYVEVLECENFDTTSVPARIPENRIRSTRSVENLPECGITHEQRAGSFSTVPNYDNDDEAWSVDDIGELQVELPEVHTNSCDNISQFSVDSITSQESKEPVFIAAGDIRRRLSEQLAHTPTAFKRDPEDPSAVALKEPWQEKVRRIREGSPYGHLPNWRLLSVIVKCGDDLRQELLAFQVLKQLQSIWEQERVPLWIKPYKILVISADSGMIEPVVNAVSIHQVKKQSQLSLLDYFLQEHGSYTTEAFLSAQRNFVQSCAGYCLVCYLLQVKDRHNGNILLDAEGHIIHIDFGFILSSSPRNLGFETSAFKLTTEFVDVMGGLDGDMFNYYKMLMLQGLIAARKHMDKVVQIVEIMQQGSQLPCFHGSSTIRNLKERFHMSMTEEQLQLLVEQMVDGSMRSITTKLYDGFQYLTNGIM
On to B6, for which, in experiment [1] (setting [3]), the “Difference (log2), untreated vs GFP” value is on record as 4.864 log2. The “Difference (log2), PP1 vs untreated” value in experiment [2] (setting [4]) was -5.63 log2.

B7: FAM83H (protein, UniProt Q6ZRV2 1-1179, looked up)
Protein FAM83H: MARRSQSSSQGDNPLAPGYLPPHYKEYYRLAVDALAEGGSEAYSRFLATEGAPDFLCPEELEHVSRHLRPPQYVTREPPEGSLLDVDMDGSSGTYWPVNSDQAVPELDLGWPLTFGFQGTEVTTLVQPPPPDSPSIKDEARRMIRSAQQVVAVVMDMFTDVDLLSEVLEAAARRVPVYILLDEMNAQHFLDMADKCRVNLQHVDFLRVRTVAGPTYYCRTGKSFKGHVKEKFLLVDCAVVMSGSYSFMWSFEKIHRSLAHVFQGELVSSFDEEFRILFAQSEPLVPSAAALARMDAYALAPYAGAGPLVGVPGVGAPTPFSFPKRAHLLFPPPREEGLGFPSFLDPDRHFLSAFRREEPPRMPGGALEPHAGLRPLSRRLEAEAGPAGELAGARGFFQARHLEMDAFKRHSFATEGAGAVENFAAARQVSRQTFLSHGDDFRFQTSHFHRDQLYQQQYQWDPQLTPARPQGLFEKLRGGRAGFADPDDFTLGAGPRFPELGPDGHQRLDYVPSSASREVRHGSDPAFAPGPRGLEPSGAPRPNLTQRFPCQAAARPGPDPAPEAEPERRGGPEGRAGLRRWRLASYLSGCHGEDGGDDGLPAPMEAEAYEDDVLAPGGRAPAGDLLPSAFRVPAAFPTKVPVPGPGSGGNGPEREGPEEPGLAKQDSFRSRLNPLVQRSSRLRSSLIFSTSQAEGAAGAAAATEKVQLLHKEQTVSETLGPGGEAVRSAASTKVAELLEKYKGPARDPGGGAGAITVASHSKAVVSQAWREEVAAPGAVGGERRSLESCLLDLRDSFAQQLHQEAERQPGAASLTAAQLLDTLGRSGSDRLPSRFLSAQSHSTSPQGLDSPLPLEGSGAHQVLHNESKGSPTSAYPERKGSPTPGFSTRRGSPTTGFIEQKGSPTSAYPERRGSPVPPVPERRSSPVPPVPERRGSLTLTISGESPKAGPAEEGPSGPMEVLRKGSLRLRQLLSPKGERRMEDEGGFPVPQENGQPESPRRLSLGQGDSTEAATEERGPRARLSSATANALYSSNLRDDTKAILEQISAHGQKHRAVPAPSPGPTHNSPELGRPPAAGVLAPDMSDKDKCSAIFRSDSLGTQGRLSRTLPASAEERDRLLRRMESMRKEKRVYSRFEVFCKKEEASSPGAGEGPAEEGTRDSKVGKFVPKILGTFKSKK
On to B7, for which, in experiment [1] (setting [5]), the “Difference (log2), untreated vs GFP” value was -1.013. The “Difference (log2), PP1 vs untreated” value in experiment [2] (setting [6]) came out at 1.455.
